Source: US20090117169A1

Key:
Experiment in all cases: cell-based or functional assay
Myc-tagged β-catenin = molecular target: Myc-tagged β-catenin
[1] = molecular target: endogenous β-catenin in rat vascular smooth muscle cells (RASMCs, A7r5) (rat) (UniProt Q9WU82)
[2] = molecular target: endogenous β-catenin in mouse aortic smooth muscle cells (MASMCs) (mouse) (UniProt Q02248)

UniProt Q9WU82, sequence (Q9WU82 2-781): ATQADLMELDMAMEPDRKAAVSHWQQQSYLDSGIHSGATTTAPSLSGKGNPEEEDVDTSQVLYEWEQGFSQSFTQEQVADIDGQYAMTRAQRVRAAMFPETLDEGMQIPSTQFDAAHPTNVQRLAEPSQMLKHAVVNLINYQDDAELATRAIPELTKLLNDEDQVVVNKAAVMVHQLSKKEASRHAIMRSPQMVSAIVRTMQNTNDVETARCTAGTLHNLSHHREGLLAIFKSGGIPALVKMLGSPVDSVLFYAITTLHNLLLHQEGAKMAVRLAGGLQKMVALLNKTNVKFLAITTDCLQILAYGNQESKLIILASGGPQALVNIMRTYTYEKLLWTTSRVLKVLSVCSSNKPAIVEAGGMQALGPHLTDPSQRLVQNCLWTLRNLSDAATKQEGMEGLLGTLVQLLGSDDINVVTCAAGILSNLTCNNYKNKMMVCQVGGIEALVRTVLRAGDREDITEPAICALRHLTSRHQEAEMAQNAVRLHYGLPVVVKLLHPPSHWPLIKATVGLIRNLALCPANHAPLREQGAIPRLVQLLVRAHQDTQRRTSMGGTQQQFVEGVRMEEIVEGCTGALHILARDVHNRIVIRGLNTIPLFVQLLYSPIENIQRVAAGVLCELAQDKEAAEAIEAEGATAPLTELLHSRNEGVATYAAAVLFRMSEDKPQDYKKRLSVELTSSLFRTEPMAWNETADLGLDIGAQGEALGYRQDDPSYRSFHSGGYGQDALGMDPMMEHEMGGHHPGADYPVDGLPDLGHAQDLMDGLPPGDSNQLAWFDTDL

Row | Substance | inhibition of β-catenin activation of Topflash (TCF-luciferase reporter) in A7r5 cells (Myc-tagged β-catenin) [%] | nuclear β-catenin/lamin A/C ratio in fractionated, LiCl-treated A7r5 cells [1] | LiCl-stimulated TCF/β-catenin transcriptional activation (Topflash) in MASMCs after Fat1 knockdown (% higher than control siRNA) [2]
1 | FLAG-tagged N-cadherin (receptor) | 55 | – | –
2 | IL2R-Fat1IC (from UniProt P01589 22-259) | 40 | 0.8 | –
3 | endogenous Fat1 in mouse aortic smooth muscle cells (MASMCs) | – | – | 30
